Data on eight molecules can be found in US20240067728A1 (BIO THERA SOLUTIONS, published 2024).

Positions count from the first letter of the chain named. In names and notes the source's numbering stands. Where two headings read alike, the source gives them in different places.

What is called EC50 (read off the curve) is the concentration at which the effect is half-maximal. High values mean lower potency in that assay, low ones higher potency in that assay. As a reminder, the Kd is the constant that tells how readily two partners part at equilibrium. The low end stands for a tighter complex, the high end for a looser complex.

Assay [1] has as its target T1, human PD-L1 on PD-L1-CHO cells (human, UniProt Q9NZQ7 19-290).
T1 construct: whole, on cells; also called CHO cells overexpressing human PD-L1; PD-L1 expressed on the cell surface
Kind of assay: FACS on PD-L1-CHO cells, PE-labeled anti-human Fc secondary antibody; MFI(Mean) against Con(nM).

Assay [2] deals with T1, human PD-L1 on PD-L1-CHO cells. The description is as above. This is another data set of the same source.
Assay [3] has as its target T2, PD-L1 on CHO-PD-L1 cells (Promega PD-1/PD-L1 Blockade Bioassay) (UniProt Q9NZQ7 19-290, limits assumed). Kind of assay: cell-based or functional assay.
The target in assay [4] is T2, PD-L1 on CHO-PD-L1 cells (Promega …). Kind of assay: cell-based or functional assay. This is another data set of the same source.
Assay [5] shares this target. Kind of assay: cell-based or functional assay. This is another data set of the same source.
Assay [6] addresses T3, PD-L1-His antigen (human, UniProt Q9NZQ7 19-238).
T3 construct: Human PD-L1 ECD with C-terminal 8xHIS tag, expressed in HEK293F; also called hPDL1-His; human PD-L1-His
Kind of assay: SPR (Biacore T200), PD-L1-His immobilised on chip, antibody as mobile phase, 1:1 Binding fit.

Assay [7] deals with T4, CD47-His antigen (human, UniProt Q08722 19-139).
T4 construct: Human CD47 ECD with C-terminal 8xHIS tag, expressed in HEK293F; also called hCD47-His; human CD47-His
Kind of assay: SPR (Biacore), method of Example 5; cell carries an unexplained mark ^. For orientation: Surface plasmon resonance follows binding to a sensor surface in real time, without labels.

The target in assay [8] is T5, CD47 on human T lymphocyte leukemia Jurkat cells (human, UniProt Q08722 19-323).
T5 construct: whole, on cells; also called tumor cells
The experiment in a line: FACS on Jurkat cells, PE-labeled anti-human Fc secondary antibody; MFI(Mean) against Con(nM).

The target of assay [9] is T6, human CD47 on CD47-CHO cells (human, UniProt Q08722 19-323).
T6 construct: whole, on cells; also called CHO cells overexpressing human CD47; CD47 expressed on the cell surface
The experiment in a line: FACS on CD47-CHO cells, PE-labeled anti-human Fc secondary antibody; MFI(Mean) against Con(nM).

Assay [10] addresses T4, CD47-His antigen. Kind of assay: SPR (Biacore), method of Example 5, 1:1 Binding fit.
In assay [11] the target is T7, CD47 on human red blood cells (human, UniProt Q08722 19-323).
T7 construct: whole, on cells; also called RBC
The experiment in a line: FACS on human red blood cells, PE-labeled anti-human Fc secondary antibody; MFI(Mean) against Con(nM).

Assay [12] concerns the target T6, human CD47 on CD47-CHO cells. The experiment in a line: FACS on CD47-CHO cells, PE-labeled anti-human Fc secondary antibody; MFI(Mean) against Con(nM). This is another data set of the same source.
Assay [13] concerns the target T3, PD-L1-His antigen. Kind of assay: SPR (Biacore), method of Example 5, 1:1 Binding fit.
The target in assay [14] is T4, CD47-His antigen. The assay is described as above. The source holds these as a separate data set.
In assay [15] the target is T4, CD47-His antigen. The experiment in a line: SPR (Biacore), method of Example 5, Two State Reaction fit.

T2 sequence (Q9NZQ7 19-290 limits assumed): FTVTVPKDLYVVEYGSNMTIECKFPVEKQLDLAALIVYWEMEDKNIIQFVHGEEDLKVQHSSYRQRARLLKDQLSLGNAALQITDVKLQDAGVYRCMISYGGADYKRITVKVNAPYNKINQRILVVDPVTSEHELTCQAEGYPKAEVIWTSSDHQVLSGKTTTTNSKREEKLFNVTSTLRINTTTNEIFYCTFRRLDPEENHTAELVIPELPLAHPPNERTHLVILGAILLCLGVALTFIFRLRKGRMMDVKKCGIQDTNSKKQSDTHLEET
T1 sequence (Q9NZQ7 19-290): as the sequence (Q9NZQ7 19-290 limits assumed) above
T3 sequence (Q9NZQ7 other isoform, or with tags, fused parts or gaps limits assumed): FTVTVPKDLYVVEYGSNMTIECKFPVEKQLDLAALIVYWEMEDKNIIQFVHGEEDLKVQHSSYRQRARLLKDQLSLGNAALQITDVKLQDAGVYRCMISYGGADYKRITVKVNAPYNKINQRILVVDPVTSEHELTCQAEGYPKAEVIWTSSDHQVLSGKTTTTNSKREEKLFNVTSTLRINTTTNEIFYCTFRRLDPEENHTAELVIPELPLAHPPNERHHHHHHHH

B1: L1-R2-4-71 (antibody, human IgG1, kappa, V domains shown)
VH: EVQLVESGGGLVQPGGSLRLSCAASGFTFSDSWIHWVRQAPGKGLEWVGWISPYGGSTYYADSYRSRFTISADTSKNTAYLQMNSLRAEDTAVYYCARRHWPGGFDYWGQGTLVTVSS
VL: EIVLTQSPSSLSASVGDRVTITCLASQTIGTWLAWYQQKPGKSPQLLIYAASTLQSGVPSRFSGSGSGTDFTLTISSLQPEDVATYYCQQYYSTPRTFGQGTKVEIKR
notes: also called parental anti-PD-L1 antibody L1-R2-4-71
Consider B1, for which the “EC50 (read off the curve)” value in assay [1] is roughly 0.6 nM; in assay [2], roughly 0.2 nM; in assay [5], roughly 2 µg/mL. The “EC50 (luciferase reporter, PD-1/PD-L1 blockade MOA assay; blocked partner: PD-1 on Jurkat-PD1 cells)” value in [3] turned out to be 0.292 µg/mL; in assay [4] it was 0.087 µg/mL; in assay [5], 0.382 µg/mL. This molecule also registered a Kd with PD-L1-His antigen [6] of 0.282 nM.

B2: 47-R2-89 (antibody, human IgG1, kappa, V domains shown)
VH: QVQLQESGPGLVKPSETLSLTCTVSGGSLDNYYWSWIRQPPGKGLEWIGYIYYSGNTNYNPSLKSRVTISVDTSKNQFSLKLSSVTAADTAVYYCARGGRFLERYWGQGTLVTVSS
VL: B1 VL with E1D, V3Q, L4M, T53S, R96Y, E105D
notes: Anti-CD47 monoclonal antibody, L12-6-VH with light chain R2-89
Consider B2, for which, in the assay with CD47-His antigen [7], the Kd is 0.361 nM.

B3: 47-R2-4 (antibody, human IgG1, kappa, V domains shown)
VH: B2 VH
VL: B1 VL
notes: Anti-CD47 monoclonal antibody, L12-6-VH with light chain R2-4; also called parental anti-CD47 antibody 47-R2-4
On to B3, for which the binding result in [1] is “no binding (tested: 10 nM)”. Also, the “EC50 (read off the curve)” value in assay [8] was roughly 0.7 nM; in [9] it was roughly 1 nM; in assay [11] it was roughly 3 nM; in [12], roughly 0.9 nM. Moreover, the Kd with CD47-His antigen [10] is 3.29 nM.

B4: 47-R2-18 (antibody, human IgG1, kappa, V domains shown)
VH: B2 VH
VL: EIVLTQSPSSVSASVGDRITITCRASQGIGSWLAWYQQKPGKAPSLLIYAASSLQSGVPSRFSGSGSGTDFTLTISSLQTEDVAVYYCQQYFSTPYTFGQGTKVDIKR
notes: Anti-CD47 monoclonal antibody, L12-6-VH with light chain R2-18
Regarding B4, in the assay with CD47-His antigen [7], the Kd is 0.312 nM.

B5: BsAb-36 (bispecific antibody, human IgG1, kappa)
heavy 1: not shown
heavy 2: not shown
light: EIVLTQSPSSLSASVGDRVTITCLASQTIGTWLAWYQQKPGKSPQLLIYAASTLQSGVPSRFSGSGSGTDFTLTISSLQPEDVATYYCQQYYSTPRTFGQGTKVEIKRTVAAPSVFIFPPSDEQLKSGTASVVCLLNNFYPREAKVQWKVDNALQSGNSQESVTEQDSKDSTYSLSSTLTLSKADYEKHKVYACEVTHQGLSSPVTKSFNRGEC
notes: Knob-into-hole IgG1-like bispecific with common light chain; first heavy chain is the anti-PD-L1 arm, second the anti-CD47 arm; also called anti-PD-L1/CD47 bispecific antibody BsAb-36
Take B5: the “EC50 (read off the curve)” value in assay [1] is roughly 0.7 nM. Further, the results for the Kd with PD-L1-His antigen [13], in the assay with CD47-His antigen [14] and with CD47-His antigen [15] were 0.352 nM, 28 nM and 4.49 nM, respectively. In [3], the “EC50 (luciferase reporter, PD-1/PD-L1 blockade MOA assay; blocked partner: PD-1 on Jurkat-PD1 cells)” value is 0.208 µg/mL.

B6: BsAb-47 (bispecific antibody, human IgG1, kappa)
heavy 1: not shown
heavy 2: not shown
light: B5 light
notes: Knob-into-hole IgG1-like bispecific with common light chain; first heavy chain is the anti-PD-L1 arm, second the anti-CD47 arm; also called anti-PD-L1/CD47 bispecific antibody BsAb-47
For the molecule B6, the figures for the concentration for a half-maximal effect (EC50 (read off the curve)) in assay [1] and in assay [9] were roughly 0.8 nM and roughly 4 nM, respectively. Further, the Kd in the assay with PD-L1-His antigen [13] is 0.223 nM; with CD47-His antigen [14] it was 28.4 nM; in the assay with CD47-His antigen [15], 4.77 nM. For the same molecule, in assay [3], the “EC50 (luciferase reporter, PD-1/PD-L1 blockade MOA assay; blocked partner: PD-1 on Jurkat-PD1 cells)” value was determined as 0.295 µg/mL.

B7: BsAb-46 (bispecific antibody, human IgG1, kappa)
heavy 1: not shown
heavy 2: not shown
light: B5 light
notes: Knob-into-hole IgG1-like bispecific with common light chain; first heavy chain is the anti-PD-L1 arm, second the anti-CD47 arm; also called anti-PD-L1/CD47 bispecific antibody BsAb-46
As for B7, the “EC50 (read off the curve)” value in assay [1] is roughly 0.8 nM. For the same molecule, the dissociation constant (Kd) was 0.371 nM with PD-L1-His antigen [13], 29.1 nM with CD47-His antigen [14] and 3.95 nM in the assay with CD47-His antigen [15]. In addition, the “EC50 (luciferase reporter, PD-1/PD-L1 blockade MOA assay; blocked partner: PD-1 on Jurkat-PD1 cells)” value in assay [3] came to 0.143 µg/mL.

B8: BsAb-71-N297A (bispecific antibody, human IgG1, kappa, N297A)
heavy 1: EVQLVESGGGLVQPGGSLRLSCAASGFTFSDSWIHWVRQAPGKGLEWVGWISPYGGSTYYADSYRSRFTISADTSKNTAYLQMNSLRAEDTAVYYCARRHWPGGFDYWGQGTLVTVSSASTKGPSVFPLAPSSKSTSGGTAALGCLVKDYFPEPVTVSWNSGALTSGVHTFPAVLQSSGLYSLSSVVTVPSSSLGTQTYICNVNHKPSNTKVDKKVEPKSCDKTHTCPPCPAPELLGGPSVFLFPPKPKDTLMISRTPEVTCVVVDVSHEDPEVKFNWYVDGVEVHNAKTKPREEQYASTYRVVSVLTVLHQDWLNGKEYKCKVSNKALPAPIEKTISKAKGQPREPQVYTLPPCRDELTKNQVSLWCLVKGFYPSDIAVEWESNGQPENNYKTTPPVLDSDGSFFLYSKLTVDKSRWQQGNVFSCSVMHEALHNHYTQKSLSLSPGK
heavy 2: not shown
light: B5 light
notes: BsAb-71 with the N297A mutation in the Fc region; also called anti-PD-L1/CD47 bispecific antibody BsAb-71-N297A
For B8, the “EC50 (read off the curve)” value in assay [2] is roughly 0.5 nM. Moreover, in [4], the “EC50 (luciferase reporter, PD-1/PD-L1 blockade MOA assay; blocked partner: PD-1 on Jurkat-PD1 cells)” value is 0.164 µg/mL.
